The DeepSol protein solubility set

Assay: soluble on expression in E. coli; label from the status in PepcDB or PDB records

Soluble on expression in E. coli, not soluble:
MGSDKIHHHHHHMSLPETPTIRIGMAMWSHPGWKTVFPGLDAEARLTAYSRVFGTVEGNTSFYALPSAQQVSIWQRATPEDFRFTFKLPRRITHELSLRNCREEVLQFFRLFEPLMAKTGVWKIQLPARFGPESLSVLTQFLSLLPEGIGLGVEVRHRAFFAKGEAEKDFNRLLMDKGINRIIMDTRPVFALPAINEAITDAHQKKPRVPVHPLATGAHPVVRFIAQPHTPAAWGPGGKPADLGCADNLAFFAPWLGKLAGWLAEGRSPYLFIHTPDNSDAPLLASELAKQVAAHLQALHPGLPIPSVMLDSAESDGGQIGLGLQ
MGSDKIHHHHHHMFLKENSVDDFDKQLDDLFKTTKTSRISELSEALGVSPTTIRTWRGRNKIPASAFRKAELSIQNDSDVKTDTRISLSFYEISASAGGGALVEVEEQANLISFEPEWLNKEIGVNANDVFLMLVDGDSMYPTLKNGAMIMVNKHFNGLSDGIYVMRHEQNLLVKRLQMLPNGIIKVKSDNNLYEPWEINKENLDGTDIEIIGRVVWSGQRM
MGSDKIHHHHHHMKAFQYAARAQRIVFGAGTIRQVGEEIDALGASSVLVLSTPEQRRLAEQVSDLLGARAIGIFDRAVMHVPVETARAACAMAFELGADSVVAIGGGSTTGLAKAIALEMSVPVLAIPTTYAGSEMTTIYGLTDAGLKRTGTDVRVLPRTVIYDPELTYLLPAAISVTSGINALAHAAEGLYAHDRNPISDLMAREGIQAMAAALPALVSERDTARLREARAQALYGAWLCGAVLGSVGVALHHKLCHTLGGSFNLPHAETHTIILPHALAYNAKAAPDAMASIAQALGADNAAQGAFDLARTTGAPLGLRQIGMREDELDKACEIALQNQYPNPRPLEAGAIRELLQNAWEGRRPV
MTTPNTQLWEVFIRSRNGLAHKHVGSLHAADATLALQAARDIYTRRGEGLSIWVVPSNAITASDPAEAGMLFEPAESKIYRHPTFYEVPDEVGHM
MGSDKIHHHHHHMLQLSEFEPEVLYAFPFRNEHPGTYVYHQHDFLELSIMLEGYSDYNVEGQWRRVVAGQALLFNPGIHHQETQPPHTQSLQLHIGFRHIALPGQVPNHLPFKDALISLDDYRAEFMANAQRIVAESQRPTAFGHALLIQAMVIEQLCWLLRSLPENSVSNDYTELHQGNVSRDQQALVNAATYYLDVHYNEDLTLGTVAASLHVSAAYLSRTFKAIQGETPISYLTRLRMQRAKQLLMQEAITVRQVAHAVGYQDPYYFSKVFKRYFGAAPTLIER
FNRRFILPELREAVRSVSADIVFLQEVHGEHHSHARRVKDWPTISQYEFLADSMWSDFAYGRNAVYPDGDHGNALLSKYPIIQHENLDVSIDGTEQRGLLHCILQVPDHGQVHAVCVHLGLFESHRRQQLKLLAQLMDRLPEGAPVIVAGDFNDWRQRADALLQGTGLHEVFVQRFGAPAKSFPARWPLLRLDRIYVRNATSHRPKVLSSRPWSHLSDHAPLAVEVTL
MAHHHHHHMKPEGAKGAVVSDDVGGDSANLAYCSDRITLLSRADIEAFTCCSNGAGGGGASNSENHNGGCGGLASEAQSVDPCSTLDTCIAALPMFLQSEALVLRRHEQQFRHHMKELVELTECITLLCDGSLRQHAAAVAGQPAEQSADAQRAESAALHRMLHRAEELERYVRAAAVERLRSAQRMVLAASTTKRREKVGRKSAVRPPKATK
RNFKMIDNLSKVYGVELGYASRIKLLRAVFVNMAAAGASELAIDAGMDLMSMDLAGKVSARAGQGLGVGILTARLGLKAMALLRPLPWYPDRQVKLGTIRKAVVAKVASITMKP
TKDWNLDLTLNMSHNKNKVTKLVEEGRAQSAMDVVVQGSYADQVLAVGYPMGAFHGYEYAGIIQDQARIDELNAYAKSKGQSYYDGNSLKPGHLEIKDLNGDGIINYNDRVIIGNPDPDLFGGLTANLSYKQFSLFANFGYQIGGLKIYNKTLQNLPGQLTGLIDYGLNDRWSDTNKNAKYPALYIGDGVPRLTDHELFNASFFRLQEVRLTYNLPLNKVIKGQLFVSATNLFTLTSYPGTDPATVNSNSNYGGNYETSTYPGFRSFSAGLKINL
MQYINYRENRRRGTADFPLEYYHVTASHPQYVMSFHWHVEFELIRILSGSLTVTIDEIEFLAEAGDSIFIPAGSIHSGIPDDCVYECLVFDMNMLMNKTDSCCRFLRQITDHEVSVQTHYPKICNTIHRTLWTLFDAAASKKEGYQLVVFGAMYQFFGTLFSEGFCKNAPDEEHRSHKRILQLKQALEFMESSYNLPLTLEEISGSVNMSPKYFCRFFHEMTHRTPIDYLNYYRIERACYQLITTNLSITEIAYASGFNDLSYFIKTFKKYKGTTPKKYLKI
MGSDKIHHHHHHMLLALSTWSEIEERLKSSTSVVVPIGSNEQHGPTGLLGTDWLCPEIIAHEASKRASDKVLVAPTFNIGMAQHHLAFPGTIFLRPSTFIAAIGDWVRSLGAHGFTRIYFLNGHGGNVASIEAAFSEIYADYSFRQQRAPFALKLKNWWDLAGVNALANRQFPTGHGSHATPSEIAVTQWAYPETIKTAAYSPPIAPTGPIREALDFRARYADGRMGSDPAQATPEKGGELVSMAANALIEDLAAFAAERAPA
MGSDKIHHHHHHMNGLFVLAYAITNLHPGAGRGYGIVDMPVQRDQMGYPIIYSSAFKGPLKALCAGDAINDHGRIDCKKKGECCCLFGSEPEEEESSKGMLNVMDLPLFSVPAPTFDGFVQVTTNYLIDRARNIFEAISHINGYLGSLGNEIKALLDAQGNKSVEVYDTEAKVVNFDPSSFKLLSSLPLFNNRLAISDDKRVIDKSLIIYTRNRLNLLTKVVEEGGLWSEEYIPMGSIFIGGMIIDNVRNKFCDELSKISCDSRLFLHHFSRIFNADKISEDVYLFYLNIGGKESIGKGLMKVFIGV
MSNYTWKQADIQTLISFYETLGEEINPKVQKVQQNSEANSFSEKAKKFGLLDLPIYSKCVDSSQLIAESASRVYHDAKEYMNNGSATEAELYRFVSSILKEVLEPIFNPKEIRNVLKGLITSLVDSRSRDEEIGSDIEKNVKYEVVRFLPESPPNFPGFNDNVSRSITNFIGYFALHTIRHHCYVNFGVDGELKFYQRNMYKKAFDDLRVNKAKPTVSVKPEASLKREPKAETPTLTRVKPEIRNDSDEDFCEIIEPAVKKSKTRQTSESNAKGGKELKDFPEKYMLEDLDKDDLPMNFKTKFRKLVEQNQMLRDEINDYKELIQLKIAEKKQRMG
MTIFNKIDYNYYKLINYPIMMVHDEWLGDLTGVNQVSFRRLRETSSTRNQLNKILRQEIHDKISGVELSDINKEGFLYQSIGKIRLLALSSALFDIQCPDYIFSRLYRETLIREIGYQNVKQLSFYWQGGQCKPEYGEERFCAELIKYGAGNLEWLFADNPLWTIVKYLLPKSGEIKPTHINDLFLNRLNKILLPYETL
MSDDESIFVPDENSAQVSAETTVKCYRTDSASSQKVINNLEKFVLNQSLDKSYKKIASDGIASSKRTLESLLARNGGHQNLLNEEVNKLNNKNYTLDADGRVCLVKNSSNDTSRHQELILLQKDTHELRCLREYLMLALEAIMHNHRQMMVKHVQNVRERPRQVSQAAIDNAIVSSAFGLFIEAFYSFLFQEKANTRIIDEFAQMTLFVDQSIAREEIRSENRRKLKKTIEIETFLMRMMLEMEDIREANVKDLVSLWRSHQRSAKTQPTNNNAAGDSTN
AYDIISDIHGCYDEMTALIQKLGYTIKNGVPVHEEGRVLVFAGDLTDRGPKSIEVIRFVAGAYEKGAVRYVPGNHCNKLYRYLKGNPVKVMHGLETTAAELEELSKDEKKSVSEQFMKLYETAPLYDILHNGELVVAHAGIRADDIGKYTRRVKDFVLYGDVTGETYPDGRPIRRDWAAAYNGKAWVVYGHTPVKEPRKVNRTINIDTGCVFGNQLTGFRFPEIETVSVPSSLPYDESRFRP
GPGSMSFSHFVPPISRRRMFFEDQLDEALSREGSPRLSTSNTVGGADLVAAGAANDETFPFPSHAAPGHLLKSLIQATENERCAPDILPYPEAIVDSVVAQIVAQNEQIRLLGTDERQKAAGSDSGVSLLPFKPSDIMALEVQRAQFFLCELLRCRLRKIEALALTINYESQSGAEAHTQLREHLSHNEIVVADRLAELISKCVRQAGLQSAPSELQQLVPNAPYAEGNEVLPIPDIDHYVFCVVLDDLGVVRLGDDAEQTVHAGEVFIVPYRTFRPYILEGRVRLV
MGHSQSYDLRNPEGGEKTPVRGVRRVSREHQTDAQFSTETAEPFDFREDELRDRIRREQLRKREVELETLRIRQHESREPIIDAYRQNQPAPQGNLYNEFNHYDSMKHASPSDPATYFALKPMTEVNEGRQFSIPTSSTRRYDQVPIDPSPELQRREVPSKQSPPNYPKRSSVFGGRVSPLPRQSEVDPHPMPRYIPPMSPSNPIDDVPPTHVSELHAEKRMIVGIDDELQPEKNNVTYVTVATAAIDNELLHRHPEVGRHPVYVLPAQTSYGASAKRRSSDDEAKNVLPPQNCTVEHCTHVAVNDGSPVVIRKRASQDSIRDKENRLTIPINEDDTENVGEGTNYQNVSKKCFEERLHYDSYMPTLSLRQRPVVSFYDKLH
MKYIEPHFISFTQHTLKSQLIPKSFHGMKILQFSDLHLGYYFSLQHLSQVVSKINAVNPDIVLFTGDLIDNYQTYTDTPFVASILKNIQAPFGKFAIYGNHDHGGYGTEYYEHIMRESGFELLLNSKKRIRLMDNSEISIFGLDDILLGKPKIEKTLQHARQNTYNIVLVHEPDIAPQISKYPINLQLSGHSHGGQVQIPFLGAIITPSLAKDYIEGFYTMQDLTLYVNRGLGRTRVPFRFMSKPEITIFTLQHSLEHHHHHH

Soluble on expression in E. coli, soluble:
LVPRGSAMGSGNDTSRGANKTVVVTTILESPYVMMKKNHEMLEGNERYEGYCVDLAAEIAKHCGFKYKLTIVGDGKYGARDADTKIWNGMVGELVYGKADIAIAPLTITLVREEVIDFSKPFMSLGISIMIKKGTPIESAEDLSKQTEIAYGTLDSGSTKEFFRRSKIAVFDKMWTYMRSAEPSVFVRTTAEGVARVRKSKGKYAYLLESTMNEYIEQRKPCDTMKVGGNLDSKGYGIATPKGSSLGNAVNLAVLKLNEQGLLDKLKNKWWYDKGECGS
MSMLLGDHPELRSRAREIASLAARVVEQVNSMPAGEQKRLLSEQYPELARFEEQREKGDKGLPPLPGAVEGRVKLRFAPNPDFVIHMGNARPAIVNHEYARMYKGRMVLRFEDTDPRTKTPLREAYDLIRQDLKWLGVSWDEEYIQSLRMEVFYSVARRAIERGCAYVDNCGREGKELLSRGEYCPTRDLGPEDNLELFEKMLEGEFYEGEAVVRMKTDPRHPNPSLRDWVAMRIIDTEKHPHPLVGSRYLVWPTYNFAVSVDDHMMEITHVLRGKEHQLNTEKQLAVYRCMGWRPPYFIHFGRLKLEGFILSKSKIRKLLEERPGEFMGYDDPRFGTIAGLRRRGVLAEAIRQIILEVGVKPTDATISWANLAAANRKLLDERADRIMYVEDPVEMEVELAQVECRAAEIPFHPSRPQRKRRITLCTGDKVLLTREDAVEGRQLRLMGLSNFTVSQGILREVDPSLEYARRMKLPIVQWVKKGGEASVEVLEPVELELRRHQGYAEDAIRGYGVDSRLQFVRYGFVRVDSVEDGVYRVIYTHK
MSLIVTLPEPTGPYEIGVTNFHWVDPDREEVEGVNGNRELMVRIWYPAELTEGGLKAPYAFDPSYTELVSKELPYYYKALLYSVIQTETHSFANVPVADHGAPYPVLILSPGYGNSNFMYTSQAETLASHGYIVCSIEHTYYTGLPTLFPDGRIVYEQIDLEDGRDLDEEITVWVDDVQFVLDQLQKWNESDPQNLLNGRLDMDRVGMLGHSFGGATTAQVMHQDPRIRAGVNMDGFLFGSLIEEGLDYPFMYMSGVEEVSMEGPDGKKVEEAELPEEFREFIADDKRRKEGALKNNGLYVVIENAEHESFSDWMLYSPLLLDRDLPMLDQINKTLLDFFDEHLKEGHHHHHH
